The record followed here is patent publication US20240369578A1 (NEURO BIO, published 2024).

For the assay, the target named is T1, alpha-7 nicotinic receptor (human, UniProt P36544 23-502).
T1 construct: Endogenous receptor in human brain homogenate, captured by biotinylated BTX on SA-donor beads in the AlphaLISA; also called alpha-7 receptor
Nature of the assay: AlphaLISA of T14-alpha-7 complex in human hippocampal tissue lysate (biotinylated BTX on SA-donor beads, anti-T14 on acceptor beads). On the procedure: Samples were extracted from homogenized human brain tissue using PerkinElmer lysis buffer and the protein concentration determined using the BCA method. For 100 mg tissue homogenization, 1 mL of lysis buffer was used. Five cycles of 40 second pulse, and 10 second breaks, on a shielded homogenizer were used for each sample. Samples were centrifuged at […], 15000 rpm (15 minutes) for supernatants; these were diluted in PerkinElmer Assay buffer and used to measure T14-alpha-7 nicotinic receptor complexes in the presence of NBP14 (concentrations 0.065 μM-900 μM) with AlphaLISA following the manufacturer's protocol. The antibodies were biotinylated BTX on SA-donor beads and anti-rabbit T14 on acceptor beads; results read in an AlphaLISA Reader.
Background: Bead proximity is the source of the signal in Alpha formats.

T1 sequence (P36544 23-502 limits assumed): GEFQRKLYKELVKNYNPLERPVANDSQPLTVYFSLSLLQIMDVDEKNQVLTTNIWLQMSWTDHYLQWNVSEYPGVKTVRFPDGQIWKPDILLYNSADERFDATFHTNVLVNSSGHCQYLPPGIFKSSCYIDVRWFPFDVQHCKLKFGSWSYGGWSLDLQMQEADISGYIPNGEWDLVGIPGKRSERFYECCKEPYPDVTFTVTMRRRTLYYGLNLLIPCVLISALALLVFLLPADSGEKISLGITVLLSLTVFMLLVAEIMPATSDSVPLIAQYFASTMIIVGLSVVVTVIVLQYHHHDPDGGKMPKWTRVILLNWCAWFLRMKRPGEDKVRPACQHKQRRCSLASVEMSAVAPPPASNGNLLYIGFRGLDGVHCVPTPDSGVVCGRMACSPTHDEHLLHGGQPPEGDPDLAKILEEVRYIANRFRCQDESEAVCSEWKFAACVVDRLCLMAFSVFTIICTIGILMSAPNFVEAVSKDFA

B1: T14 peptide (AChE-derived peptide, SEQ ID No:3) (peptide)
peptide: AEFHRWSSYMVHWK
notes: In the assays this was endogenous T14 in human brain tissue, CSF or plasma; Synthetic T14 served as the positive control and standard
B1: the binding result was “binds”.
